Data reported in patent US20260242419A1, “A CYCLIC PEPTIDE FOR TRAPPING INTERLEUKIN-1 BETA” (Merck Sharp & Dohme LLC, priority 2023, published 2026).
Starred links: 1 amine or outer side, 2 acyl side, 3 side chain; linkers in the order of their positions; H or OH if unused. Non-standard residues stand in square brackets, D forms with d. Primed or numbered codes have the meaning given here. AEFBz4Piperaz = (S)-2-amino-3-(4-(2-(4-(piperazin-1-yl)benzamido)ethoxy)phenyl)propanoic acid, O=C(NCCOc1ccc(C[C@H](N[*:1])C(=O)[*:2])cc1)c1ccc(N2CCN([*:3])CC2)cc1; AEF2PyrimCO = (S)-2-amino-3-(4-(2-(pyrimidine-2-carboxamido)ethoxy)phenyl)propanoic acid, O=C(NCCOc1ccc(C[C@H](N[*:1])C(=O)[*:2])cc1)c1ncccn1; AEF4PyrimCO = (S)-2-amino-3-(4-(2-(pyrimidine-4-carboxamido)ethoxy)phenyl)propanoic acid, O=C(NCCOc1ccc(C[C@H](N[*:1])C(=O)[*:2])cc1)c1ccncn1; AEF4PyrCO = (S)-2-amino-3-(4-(2-(isonicotinamido)ethoxy)phenyl)propanoic acid, O=C(NCCOc1ccc(C[C@H](N[*:1])C(=O)[*:2])cc1)c1ccncc1; AEFBz = (S)-2-amino-3-(4-(2-benzamidoethoxy)phenyl)propanoic acid, O=C(NCCOc1ccc(C[C@H](N[*:1])C(=O)[*:2])cc1)c1ccccc1; TyrEtNAc = (2S)-3-[4-(2-acetamidoethoxy)phenyl]-2-amino-propanoic acid, CC(=O)NCCOc1ccc(C[C@H](N[*:1])C(=O)[*:2])cc1; dProc3CH24Pal = (2R,3S)-3-(4-pyridylmethyl)pyrrolidine-2-carboxylic acid, O=C([C@H]1[C@@H](Cc2ccncc2)CCN1[*:1])[*:2]; DabMe3 = [(3S)-3-amino-4-oxo-butyl]-trimethyl-ammonium, C[N+](C)(C)CC[C@H](N[*:1])C(=O)[*:2]; Ala3Isoxa5Me = 3-(5-methylisoxazol-3-yl)alanine, Cc1cc(C[C@H](N[*:1])C(=O)[*:2])no1; 4PyrimAla″ = 3-(pyrimidin-4-yl)alanine, O=C([C@H](Cc1ccncn1)N[*:1])[*:2]; Ala2Oxa = 3-(oxazol-2-yl)alanine, O=C([C@H](Cc1ncco1)N[*:1])[*:2]; dPro(4R-(4-pyridylmethyl)) = O=C(O)[C@H]1C[C@@H](Cc2ccncc2)CN1; Ala(piperidin-4-yl) = O=C([C@H](CC1CCN([*:3])CC1)N[*:1])[*:2]; Trp(βS-Me,4-F) = C[C@@H](c1c[nH]c2cccc(F)c12)[C@H](N)C(=O)O; Bip(4'-COOH) = N[C@@H](Cc1ccc(-c2ccc(C(=O)O)cc2)cc1)C(=O)O; dPro(4R-Bzl(4-F)) = O=C(O)[C@H]1C[C@@H](Cc2ccc(F)cc2)CN1; dPro(3S-(4-F-Bn)) = O=C(O)[C@@H]1NCC[C@@H]1Cc1ccc(F)cc1; Ala(morpholin-4-yl) = N[C@@H](CN1CCOCC1)C(=O)O; Ala(pyrimidin-5-yl) = N[C@@H](Cc1cncnc1)C(=O)O; Phe(4-COOH) = N[C@@H](Cc1ccc(C(=O)O)cc1)C(=O)O; Phe(4-tBu) = CC(C)(C)c1ccc(C[C@H](N)C(=O)O)cc1; Ala(4-Pyridazinyl) = N[C@@H](Cc1ccnnc1)C(=O)O; Ala(2-pyrazinyl) = N[C@@H](Cc1cnccn1)C(=O)O; Phe(3-Cl) = N[C@@H](Cc1cccc(Cl)c1)C(=O)O; Pro(cis-4-F) = O=C(O)[C@@H]1C[C@H](F)CN1; Ala(4-THP) = N[C@@H](CC1CCOCC1)C(=O)O; cisHyp = O=C(O)[C@@H]1C[C@H](O)CN1; d(αMeD) = C[C@@](N)(CC(=O)O)C(=O)O; h4Pal = N[C@@H](CCc1ccncc1)C(=O)O; 3Pal = N[C@@H](Cc1cccnc1)C(=O)O; 4Pal = N[C@@H](Cc1ccncc1)C(=O)O; Dab = NCC[C@H](N)C(=O)O; Aib = CC(C)(N)C(=O)O

Biological target: Recombinant human IL-1β (BioLegend 579404) (human, UniProt P01584 117-269)
Assay: cell-based or functional assay

| Binder | MRC5 IC50 [nM] |
| --- | --- |
| cyclo([Bip(4'-COOH)][4Pal][Phe(4-COOH)]G[Pro(cis-4-F)][Trp(βS-Me,4-F)][Aib]EW[Aib][4PyrimAla″]Q[Dab]G[dPro(3S-(4-F-Bn))]) (ring closure inferred; not fully specified (N-terminus); printed as cyclic, Bip4CO2H-4Pal-Phe4COOH-G-Proc4F-SbMeW4F-Aib-E-W-Aib-4PyrimAla-Q-Dab-G-dProc3Bn4F) [SEQ ID NO 312] | 0.017 |
| cyclo([AEFBz4Piperaz][4Pal][Phe(4-COOH)]G[Pro(cis-4-F)][Trp(βS-Me,4-F)][Aib]SW[Aib][Ala(pyrimidin-5-yl)]Q[Dab]G[dPro(4R-(4-pyridylmethyl))]) (ring closure inferred; not fully specified (N-terminus); printed as cyclic, AEFBz4Piperaz-4Pal-Phe4COOH-G-Proc4F-SbMeW4F-Aib-S-W-Aib-PyrimAla-Q-Dab-G-dProc4CH24Pal) [SEQ ID NO 306] | 0.02 |
| cyclo([TyrEtNAc][4Pal][Phe(4-COOH)]G[Pro(cis-4-F)][Trp(βS-Me,4-F)][Aib]EW[Aib][h4Pal]Q[Dab]G[dPro(4R-(4-pyridylmethyl))]) (ring closure inferred) [SEQ ID NO 318] | 0.025 |
| cyclo([AEFBz][4Pal][Phe(4-COOH)]G[Pro(cis-4-F)][Trp(βS-Me,4-F)][Aib]SW[Aib][Ala(pyrimidin-5-yl)]Q[Dab]G[dPro(4R-(4-pyridylmethyl))]) (ring closure inferred; not fully specified (N-terminus); printed as cyclic, AEFBz-4Pal-Phe4COOH-G-Proc4F-SbMeW4F-Aib-S-W-Aib-PyrimAla-Q-Dab-G-dProc4CH24Pal) [SEQ ID NO 308] | 0.013 |
| cyclo([Bip(4'-COOH)][4Pal][Phe(4-COOH)]G[Pro(cis-4-F)][Trp(βS-Me,4-F)][Aib]SW[d(αMeD)][4Pal]Q[Dab]G[dPro(4R-Bzl(4-F))]) (ring closure inferred) [SEQ ID NO 324] | 0.013 |
| cyclo([Bip(4'-COOH)][4Pal][Phe(4-COOH)]G[Pro(cis-4-F)][Trp(βS-Me,4-F)][Aib]SW[d(αMeD)][3Pal]Q[Dab]G[dPro(4R-Bzl(4-F))]) (ring closure inferred) [SEQ ID NO 323] | 0.012 |
| cyclo([Phe(4-tBu)][4Pal][Phe(4-COOH)]G[Pro(cis-4-F)][Trp(βS-Me,4-F)][Aib]EW[Aib][Ala(pyrimidin-5-yl)]Q[Dab]G[dPro(4R-(4-pyridylmethyl))]) (ring closure inferred; not fully specified (N-terminus); printed as cyclic, Phe4tButyl-4Pal-Phe4COOH-G-Proc4F-SbMeW4F-Aib-E-W-Aib-PyrimAla-Q-Dab-G-dProc4CH24Pal) [SEQ ID NO 311] | 0.017 |
| cyclo([Bip(4'-COOH)][4Pal][Phe(4-COOH)]G[Pro(cis-4-F)][Trp(βS-Me,4-F)][Aib]SW[d(αMeD)][Ala(4-Pyridazinyl)]Q[Dab]G[dPro(4R-Bzl(4-F))]) (ring closure inferred) [SEQ ID NO 322] | 0.013 |
| cyclo([Bip(4'-COOH)][4Pal][Phe(4-COOH)]G[cisHyp][Trp(βS-Me,4-F)][Aib]SW[Aib][Ala(pyrimidin-5-yl)]Q[Dab]G[dProc3CH24Pal]) (ring closure inferred) [SEQ ID NO 325] | 0.027 |
| cyclo([AEF4PyrCO][4Pal][Phe(4-COOH)]G[Pro(cis-4-F)][Trp(βS-Me,4-F)][Aib]SW[Aib][Ala(pyrimidin-5-yl)]Q[Dab]G[dPro(4R-(4-pyridylmethyl))]) (ring closure inferred; not fully specified (N-terminus); printed as cyclic, AEF4PyrCO-4Pal-Phe4COOH-G-Proc4F-SbMeW4F-Aib-S-W-Aib-PyrimAla-Q-Dab-G-dProc4CH24Pal) [SEQ ID NO 307] | 0.018 |
| cyclo([AEF2PyrimCO][4Pal][Phe(4-COOH)]G[Pro(cis-4-F)][Trp(βS-Me,4-F)][Aib]SW[Aib][Ala(pyrimidin-5-yl)]Q[Dab]G[dPro(4R-(4-pyridylmethyl))]) (ring closure inferred; not fully specified (N-terminus); printed as cyclic, AEF2PyrimCO-4Pal-Phe4COOH-G-Proc4F-SbMeW4F-Aib-S-W-Aib-PyrimAla-Q-Dab-G-dProc4CH24Pal) [SEQ ID NO 304] | 0.014 |
| cyclo([TyrEtNAc][4Pal][Phe(4-COOH)]G[Pro(cis-4-F)][Trp(βS-Me,4-F)][Aib]EW[Aib]HQ[Dab]G[dPro(4R-(4-pyridylmethyl))]) (ring closure inferred) [SEQ ID NO 317] | 0.015 |
| cyclo([Bip(4'-COOH)][4Pal][Phe(4-COOH)]G[Pro(cis-4-F)][Trp(βS-Me,4-F)][Aib]SW[d(αMeD)][Ala(2-pyrazinyl)]Q[Dab]G[dPro(4R-Bzl(4-F))]) (ring closure inferred) [SEQ ID NO 321] | 0.015 |
| cyclo([AEF4PyrimCO][4Pal][Phe(4-COOH)]G[Pro(cis-4-F)][Trp(βS-Me,4-F)][Aib]SW[Aib][Ala(pyrimidin-5-yl)]Q[Dab]G[dPro(4R-(4-pyridylmethyl))]) (ring closure inferred; not fully specified (N-terminus); printed as cyclic, AEF4PyrimCO-4Pal-Phe4COOH-G-Proc4F-SbMeW4F-Aib-S-W-Aib-PyrimAla-Q-Dab-G-dProc4CH24Pal) [SEQ ID NO 305] | 0.016 |
| cyclo([TyrEtNAc][4Pal][Phe(4-COOH)]G[Pro(cis-4-F)][Trp(βS-Me,4-F)][Aib]EW[Aib][Ala3Isoxa5Me]Q[Dab]G[dPro(4R-(4-pyridylmethyl))]) (ring closure inferred; not fully specified (N-terminus)) [SEQ ID NO 315] | 0.018 |
| cyclo([TyrEtNAc][4Pal][Phe(4-COOH)]G[Pro(cis-4-F)][Trp(βS-Me,4-F)][Aib]EW[Aib]YQ[Dab]G[dPro(4R-(4-pyridylmethyl))]) (ring closure inferred; not fully specified (N-terminus)) [SEQ ID NO 310] | 0.017 |
| cyclo([Bip(4'-COOH)][4Pal][Phe(4-COOH)]G[Pro(cis-4-F)][Trp(βS-Me,4-F)][Aib]SW[Aib][Ala(pyrimidin-5-yl)]Q[Dab]G[dProc3CH24Pal]) (ring closure inferred) [SEQ ID NO 326] | 0.011 |
| cyclo([Bip(4'-COOH)][4Pal][Phe(4-COOH)]G[Pro(cis-4-F)][Trp(βS-Me,4-F)][Aib]SW[d(αMeD)][Ala(morpholin-4-yl)]Q[Dab]G[dPro(4R-Bzl(4-F))]) (ring closure inferred) [SEQ ID NO 319] | 0.017 |
| cyclo([Bip(4'-COOH)][4Pal][Phe(4-COOH)]G[Pro(cis-4-F)][Trp(βS-Me,4-F)][Aib]SW[d(αMeD)][Ala(piperidin-4-yl)]Q[Dab]G[dPro(4R-Bzl(4-F))]) (ring closure inferred) [SEQ ID NO 320] | 0.015 |
| cyclo([Bip(4'-COOH)][4Pal][Phe(4-COOH)]G[Pro(cis-4-F)][Trp(βS-Me,4-F)][Aib]SW[d(αMeD)][Ala(4-THP)]Q[Dab]G[dPro(4R-Bzl(4-F))]) (ring closure inferred; not fully specified (N-terminus); printed as cyclic, Bip4CO2H-4Pal-Phe4COOH-G-Proc4F-SbMeW4F-Aib-S-W-daMeD-AlaTHP4-Q-Dab-G-dProc4Bn4F) [SEQ ID NO 313] | 0.015 |
| cyclo([TyrEtNAc][4Pal][Phe(4-COOH)]G[Pro(cis-4-F)][Trp(βS-Me,4-F)][Aib]EW[Aib][Ala2Oxa]Q[Dab]G[dPro(4R-(4-pyridylmethyl))]) (ring closure inferred; not fully specified (N-terminus)) [SEQ ID NO 316] | 0.02 |
| cyclo([Bip(4'-COOH)][4Pal][Phe(4-COOH)]G[Pro(cis-4-F)][Trp(βS-Me,4-F)][Aib]SW[Aib][DabMe3]Q[Dab]G[dPro(4R-Bzl(4-F))]) (ring closure inferred; not fully specified (N-terminus); printed as cyclic, Bip4CO2H-4Pal-Phe4COOH-G-Proc4F-sbMeW4F-Aib-S-W-Aib-DabMe3-Q-Dab-G-dProc4Bn4F) [SEQ ID NO 314] | 0.02 |
| cyclo([TyrEtNAc][4Pal][Phe(4-COOH)]G[Pro(cis-4-F)][Trp(βS-Me,4-F)][Aib]EW[Aib][Phe(3-Cl)]Q[Dab]G[dPro(4R-(4-pyridylmethyl))]) (ring closure inferred; not fully specified (N-terminus)) [SEQ ID NO 309] | 0.018 |
